From patent publication US20230158117A1, “COMPOSITION FOR PREVENTION OR TREATMENT OF […] COMPRISING TRIGONAL GLUCAGON/GLP-1/GIP RECEPTOR AGONIST OR CONJUGATE THEREOF AND METHOD USING THE SAME” (HANMI PHARM. CO., LTD., priority 2020, published 2023)
One block for each molecule: values may come before it. Bridges are numbered along the chain shown (N, C = ends). Where no end group is shown, it is not given here. [ ]: non-standard residue; d: D form. Aib = CC(C)(N)C(=O)O

How the values were obtained:
human GLP-1 receptor = human GLP-1 receptor (Homo sapiens, UniProt P43220); assay: In vitro activity (cAMP accumulation, LANCE cAMP kit) in CHO cells expressing human GLP-1 receptor; format: cell-based; design: expressed in transfected cells; host or cells: Chinese hamster ovary (CHO); details: long-acting conjugate, relative potency from cAMP EC50 compared to human GLP-1
Description: (§1) Activities of the triple agonists and the long-acting conjugates thereof respectively prepared in Examples 1 and 2 were measured using transformed cell lines in which a GLP-1 receptor, a glucagon (GCG) receptor, and a GIP receptor were transformed by way of a method of measuring in vitro cellular activities.
(§2) The cell lines were transformed such that genes for the human GLP-1 receptor, the human GCG receptor, and the human GIP receptor were each expressed in Chinese hamster ovary (CHO), and were suitable for measuring activities of GLP-1, GCG, and GIP, respectively. Therefore, the activity for each part was measured using each of the transformed cell lines.
(§3) For measurement of the activity of each of the triple agonists and the long-acting conjugates thereof respectively prepared in Examples 1 and 2 to GLP-1, human GLP-1 was subjected to a 4-fold serial dilution from 50 nM to 0.000048 nM, and the triple agonists and the long-acting conjugates thereof respectively prepared in Examples 1 and 2 were subjected to a 4-fold serial dilution from 400 nM to 0.00038 nM. A cultured solution was removed from the cultured CHO cells in which the human GLP-1 receptor was expressed, and each of the serially diluted substances was added to the CHO cells in an amount of 5 μL. Then, a buffer solution including cAMP antibody was added thereto in an amount of 5 μL and cultured at room temperature for 15 minutes. Thereafter, a detection mix including a cell lysis buffer was added thereto in an amount of 10 μL for lysis of the cells, followed by reaction at room temperature for 90 minutes. Upon completion of the reaction, the cell lysates were applied to a LANCE cAMP kit (PerkinElmer, USA) to calculate EC50 values via accumulated cAMP, and the values were compared with each other.

human GIP receptor = molecular target: T1, human GIP receptor (Homo sapiens, UniProt P48546); assay: In vitro activity (cAMP accumulation, LANCE cAMP kit) in CHO cells expressing human GIP receptor; format: cell-based; details: long-acting conjugate, relative potency from cAMP EC50 compared to human GIP
T1 construct: expressed in transfected cells; host or cells: Chinese hamster ovary (CHO)
T1 sequence (P48546 22-466): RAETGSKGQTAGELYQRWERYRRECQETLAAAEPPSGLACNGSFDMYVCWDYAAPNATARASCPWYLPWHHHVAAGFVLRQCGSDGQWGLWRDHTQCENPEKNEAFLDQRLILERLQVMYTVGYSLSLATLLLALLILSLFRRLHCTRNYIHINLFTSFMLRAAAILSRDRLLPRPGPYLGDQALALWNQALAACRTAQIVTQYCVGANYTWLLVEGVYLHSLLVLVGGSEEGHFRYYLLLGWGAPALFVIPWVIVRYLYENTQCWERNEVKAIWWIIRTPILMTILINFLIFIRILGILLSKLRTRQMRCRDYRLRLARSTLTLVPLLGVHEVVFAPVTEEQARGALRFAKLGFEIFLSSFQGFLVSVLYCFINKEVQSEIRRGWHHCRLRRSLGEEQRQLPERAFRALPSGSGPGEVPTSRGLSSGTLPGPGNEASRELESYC
Description: as §1, §2
as §3, with “activity” for “activity of each”, “GIP,” for “GLP-1,”, “GIP” for “GLP-1”

human GCG receptor = molecular target: T2, human GCG receptor (Homo sapiens, UniProt P47871); assay: In vitro activity (cAMP accumulation, LANCE cAMP kit) in CHO cells expressing human GCG receptor; format: cell-based; details: long-acting conjugate, relative potency from cAMP EC50 compared to human GCG
T2 construct: expressed in transfected cells; host or cells: Chinese hamster ovary (CHO)
Description: as §1, §2
as §3, with “activity” for “activity of each”, “GCG,” for “GLP-1,”, “GCG” for “GLP-1”

hyperlipidemia hamsters = assay: Therapeutic effect on hyperlipidemia in fructose-fed hyperlipidemia hamsters; format: in vivo, Golden Syrian hamsters; details: 219.2 nmol/kg, QW; comparative example; FIG. 1
Text: Golden Syrian hamsters (hereinafter referred to as hyperlipidemia hamsters) were fed with fructose for 2 weeks to induce a hyperlipidemia model. Among the triple agonists prepared in Example 1, SEQ ID NO: 42 (1.6 nmol/kg, 3.1 nmol/kg, Q2D) was selected, and the long-acting conjugate of the triple agonist having SEQ ID NO: 42 was repeatedly administered to the hamsters induced with hyperlipidemia for 3 weeks by subcutaneous administration. As a comparative example, therapeutic effects of evolocumab (219.2 nmol/kg, QW), as a conventional therapeutic agent, on hyperlipidemia were measured.

human GLP-1 receptor, sequence (P43220 24-463): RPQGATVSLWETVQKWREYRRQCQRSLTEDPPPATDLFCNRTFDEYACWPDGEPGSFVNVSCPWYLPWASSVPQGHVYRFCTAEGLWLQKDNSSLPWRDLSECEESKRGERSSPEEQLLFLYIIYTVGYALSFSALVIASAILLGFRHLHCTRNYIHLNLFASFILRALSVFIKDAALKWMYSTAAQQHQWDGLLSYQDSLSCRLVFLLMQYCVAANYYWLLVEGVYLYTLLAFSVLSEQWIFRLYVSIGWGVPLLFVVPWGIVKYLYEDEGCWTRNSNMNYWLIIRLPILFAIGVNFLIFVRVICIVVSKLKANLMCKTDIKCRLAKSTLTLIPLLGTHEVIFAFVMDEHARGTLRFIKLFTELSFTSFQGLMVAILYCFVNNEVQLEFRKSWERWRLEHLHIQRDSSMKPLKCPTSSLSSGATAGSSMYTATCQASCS

In vitro activity relative to native peptide (%) vs. GLP-1 (human GLP-1 receptor): 0.1%
In vitro activity relative to native peptide (%) vs. GIP (human GIP receptor): 0.2%
In vitro activity relative to native peptide (%) vs. Glucagon (human GCG receptor): 1.6%
Molecule: 21 (Y[Aib]QGTFTSDYSKYLDECRAKEFVQWLLDHHPSSGQPPPS; bridge 16-20) [compound 21]

In vitro activity relative to native peptide (%) vs. GLP-1 (human GLP-1 receptor): 0.1%
In vitro activity relative to native peptide (%) vs. GIP (human GIP receptor): 0.5%
In vitro activity relative to native peptide (%) vs. Glucagon (human GCG receptor): 0.9%
Molecule: 22 (Y[Aib]QGTFTSDYSKCLDEKRAKEFVQWLLDHHPSSGQPPPS; bridge 16-20) [compound 22]

In vitro activity relative to native peptide (%) vs. GLP-1 (human GLP-1 receptor): 3.1%
In vitro activity relative to native peptide (%) vs. GIP (human GIP receptor): 1.2%
In vitro activity relative to native peptide (%) vs. Glucagon (human GCG receptor): 23.1%
Molecule: 42 (Y[Aib]QGTFTSDYSKYLDEKRAKEFVQWLLDHHPSSGQPPPSC; bridge 16-20) [compound 42]

In vitro activity relative to native peptide (%) vs. GLP-1 (human GLP-1 receptor): 2.1%
In vitro activity relative to native peptide (%) vs. GIP (human GIP receptor): 0.6%
In vitro activity relative to native peptide (%) vs. Glucagon (human GCG receptor): 13.5%
Molecule: 43 (Y[Aib]QGTFTSDYSKYLDEKRAKEFVQWLLDHHCSSGQPPPS; bridge 16-20) [compound 43]

In vitro activity relative to native peptide (%) vs. GLP-1 (human GLP-1 receptor): 15.4%
In vitro activity relative to native peptide (%) vs. GIP (human GIP receptor): 0.7%
In vitro activity relative to native peptide (%) vs. Glucagon (human GCG receptor): 6.9%
Molecule: 50 (H[Aib]QGTFTSDYSKYLDEKRAKEFVQWLLDHHPSSGQPPPSC; bridge 16-20) [compound 50]

In vitro activity relative to native peptide (%) vs. GLP-1 (human GLP-1 receptor): 6.7%
In vitro activity relative to native peptide (%) vs. GIP (human GIP receptor): 6.6%
In vitro activity relative to native peptide (%) vs. Glucagon (human GCG receptor): 1.7%
Molecule: 77 (Y[Aib]QGTFTSDYSKYLDEKAAKDFVQWLLDHHPSSGQPPPSC; bridge 16-20) [compound 77]

In vitro activity relative to native peptide (%) vs. GLP-1 (human GLP-1 receptor): 0.3%
In vitro activity relative to native peptide (%) vs. GIP (human GIP receptor): 0.3%
In vitro activity relative to native peptide (%) vs. Glucagon (human GCG receptor): 4.0%
Molecule: 96 (Y[Aib]QGTFTSDYSKYLDEKRAKEFVQWLLDHCPSSGQPPPS; bridge 16-20) [compound 96]

B1: evolocumab (antibody, chains of the INN, looked up, V domains shown)
VH: EVQLVQSGAEVKKPGASVKVSCKASGYTLTSYGISWVRQAPGQGLEWMGWVSFYNGNTNYAQKLQGRGTMTTDPSTSTAYMELRSLRSDDTAVYYCARGYGMDVWGQGTTVTVSS
VL: ESALTQPASVSGSPGQSITISCTGTSSDVGGYNSVSWYQQHPGKAPKLMIYEVSNRPSGVSNRFSGSKSGNTASLTISGLQAEDEADYYCNSYTSTSMVFGGGTKLTVL
notes: conventional therapeutic agent for hyperlipidemia
effects on total blood cholesterol level and blood LDL level (hyperlipidemia hamsters): negligible effects
